The values below come from patent publication US20190134153A1, “IMMUNOMODULATORY EFFECT OF INHALED KINASE INHIBITOR PEPTIDES IN LUNG” (MOERAE MATRIX, INC., priority 2017, published 2019).

Some targets named below: IRAK1(h) (Homo sapiens, UniProt P51617); SRPK1(h) (Homo sapiens, UniProt Q96SB4); Ret(V804M)(h) (Homo sapiens, UniProt P07949, V804M); Pim-3(h) (Homo sapiens, UniProt Q86V86); PKCβII(h) (Homo sapiens, UniProt P05771); PKCη(h) (Homo sapiens, UniProt P24723); CaMKIIγ(h) (Homo sapiens, UniProt Q13555).
What all share (test): Kinase Profiling Assay
Format in all cases: biochemical
Holding throughout (conditions): 100 μM

The target of another assay is T1, Src(1-530)(h) (Homo sapiens, UniProt P12931).
T1 construct: Src(1-530)(h)

The target in a further assay is T2, NEK11(h) (Homo sapiens, UniProt Q8NG66).
T2 sequence (Q8NG66 1-645): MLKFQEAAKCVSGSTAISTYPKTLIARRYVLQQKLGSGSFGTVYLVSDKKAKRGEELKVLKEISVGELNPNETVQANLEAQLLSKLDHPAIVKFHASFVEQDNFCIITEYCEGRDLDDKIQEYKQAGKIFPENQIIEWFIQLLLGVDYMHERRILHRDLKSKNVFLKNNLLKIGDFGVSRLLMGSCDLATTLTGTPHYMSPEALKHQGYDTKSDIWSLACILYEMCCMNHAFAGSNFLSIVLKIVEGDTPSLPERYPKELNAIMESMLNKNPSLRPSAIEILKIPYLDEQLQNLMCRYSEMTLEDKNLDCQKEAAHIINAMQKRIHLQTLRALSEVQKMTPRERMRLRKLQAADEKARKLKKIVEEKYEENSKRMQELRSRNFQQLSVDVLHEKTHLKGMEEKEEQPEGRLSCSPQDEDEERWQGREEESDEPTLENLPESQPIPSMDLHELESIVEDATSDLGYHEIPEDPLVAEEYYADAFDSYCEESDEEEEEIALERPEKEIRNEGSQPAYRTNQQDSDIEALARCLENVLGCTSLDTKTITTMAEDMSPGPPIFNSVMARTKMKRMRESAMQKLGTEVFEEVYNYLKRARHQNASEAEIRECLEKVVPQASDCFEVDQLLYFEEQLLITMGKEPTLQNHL

Another assay deals with T3, PKCε(h) (Homo sapiens, UniProt Q02156).
T3 sequence (Q02156 1-737): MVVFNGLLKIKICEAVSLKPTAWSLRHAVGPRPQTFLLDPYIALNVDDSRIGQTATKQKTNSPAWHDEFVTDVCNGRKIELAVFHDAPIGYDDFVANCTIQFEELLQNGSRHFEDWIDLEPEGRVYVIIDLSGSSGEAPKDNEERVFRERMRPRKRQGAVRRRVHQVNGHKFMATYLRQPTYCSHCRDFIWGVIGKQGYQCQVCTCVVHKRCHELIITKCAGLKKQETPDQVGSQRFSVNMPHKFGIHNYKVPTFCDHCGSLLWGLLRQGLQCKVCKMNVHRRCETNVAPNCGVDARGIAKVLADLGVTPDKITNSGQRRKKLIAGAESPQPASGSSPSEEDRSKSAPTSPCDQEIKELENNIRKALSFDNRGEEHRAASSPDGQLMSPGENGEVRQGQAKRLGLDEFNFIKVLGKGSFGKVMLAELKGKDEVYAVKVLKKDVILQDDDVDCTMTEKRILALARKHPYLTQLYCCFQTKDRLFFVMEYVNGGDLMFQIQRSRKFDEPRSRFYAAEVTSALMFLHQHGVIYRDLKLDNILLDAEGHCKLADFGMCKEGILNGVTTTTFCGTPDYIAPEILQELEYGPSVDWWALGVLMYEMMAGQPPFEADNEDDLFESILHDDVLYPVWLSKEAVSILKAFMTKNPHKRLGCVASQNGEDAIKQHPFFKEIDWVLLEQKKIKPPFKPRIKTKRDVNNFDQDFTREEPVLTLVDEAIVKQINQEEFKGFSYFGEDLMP

In another assay the target is T4, IRAK4(h) (Homo sapiens, UniProt Q9NWZ3).
T4 sequence (Q9NWZ3 1-460): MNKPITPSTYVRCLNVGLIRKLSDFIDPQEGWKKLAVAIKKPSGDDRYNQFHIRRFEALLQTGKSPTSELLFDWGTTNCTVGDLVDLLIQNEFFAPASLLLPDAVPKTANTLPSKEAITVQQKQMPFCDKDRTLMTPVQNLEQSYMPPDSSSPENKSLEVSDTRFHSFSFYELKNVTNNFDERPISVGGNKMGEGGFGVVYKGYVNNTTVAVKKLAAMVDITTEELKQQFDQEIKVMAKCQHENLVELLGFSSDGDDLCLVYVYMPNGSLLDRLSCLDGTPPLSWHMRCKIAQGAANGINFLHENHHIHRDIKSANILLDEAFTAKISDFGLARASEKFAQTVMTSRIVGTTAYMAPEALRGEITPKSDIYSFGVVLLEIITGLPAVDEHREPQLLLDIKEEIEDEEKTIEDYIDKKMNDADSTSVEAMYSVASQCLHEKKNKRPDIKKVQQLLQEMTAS

Chain of SRPK1(h) (Q96SB4 whole entry): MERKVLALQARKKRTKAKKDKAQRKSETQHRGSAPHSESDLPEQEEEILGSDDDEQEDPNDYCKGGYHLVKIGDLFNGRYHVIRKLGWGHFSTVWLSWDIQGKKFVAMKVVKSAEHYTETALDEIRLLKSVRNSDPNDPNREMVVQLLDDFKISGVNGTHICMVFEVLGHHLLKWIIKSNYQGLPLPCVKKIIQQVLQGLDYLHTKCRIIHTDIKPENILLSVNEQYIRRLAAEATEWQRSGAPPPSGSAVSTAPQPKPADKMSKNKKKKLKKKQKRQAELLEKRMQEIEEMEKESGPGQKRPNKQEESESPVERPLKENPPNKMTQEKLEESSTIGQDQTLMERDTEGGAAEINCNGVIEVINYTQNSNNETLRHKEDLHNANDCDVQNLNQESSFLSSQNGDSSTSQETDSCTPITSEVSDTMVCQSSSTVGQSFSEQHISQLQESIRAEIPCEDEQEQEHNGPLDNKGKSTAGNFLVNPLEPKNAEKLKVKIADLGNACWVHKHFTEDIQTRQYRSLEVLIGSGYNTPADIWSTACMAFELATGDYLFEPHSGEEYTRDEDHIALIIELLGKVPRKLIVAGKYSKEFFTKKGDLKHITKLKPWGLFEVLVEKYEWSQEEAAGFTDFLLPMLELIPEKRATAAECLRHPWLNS
Chain of IRAK1(h) (P51617 whole entry): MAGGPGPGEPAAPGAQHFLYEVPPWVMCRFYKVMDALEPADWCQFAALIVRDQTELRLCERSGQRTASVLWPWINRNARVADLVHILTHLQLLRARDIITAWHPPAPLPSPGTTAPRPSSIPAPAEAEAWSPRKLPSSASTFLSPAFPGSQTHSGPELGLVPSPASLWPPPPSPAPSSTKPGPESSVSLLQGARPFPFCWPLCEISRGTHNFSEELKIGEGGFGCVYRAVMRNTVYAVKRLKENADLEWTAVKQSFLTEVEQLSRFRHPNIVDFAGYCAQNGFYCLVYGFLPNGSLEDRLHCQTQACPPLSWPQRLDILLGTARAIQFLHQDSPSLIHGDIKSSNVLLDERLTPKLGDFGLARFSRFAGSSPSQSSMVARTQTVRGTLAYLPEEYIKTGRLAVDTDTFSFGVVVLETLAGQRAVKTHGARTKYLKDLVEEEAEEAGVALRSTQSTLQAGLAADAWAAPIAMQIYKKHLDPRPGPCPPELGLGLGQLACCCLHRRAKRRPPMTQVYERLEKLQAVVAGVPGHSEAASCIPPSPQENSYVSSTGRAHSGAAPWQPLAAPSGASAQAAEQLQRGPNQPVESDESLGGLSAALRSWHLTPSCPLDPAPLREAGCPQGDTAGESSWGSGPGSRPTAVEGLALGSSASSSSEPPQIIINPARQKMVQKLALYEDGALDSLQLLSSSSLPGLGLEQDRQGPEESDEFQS
Chain of PKCη(h) (P24723 whole entry): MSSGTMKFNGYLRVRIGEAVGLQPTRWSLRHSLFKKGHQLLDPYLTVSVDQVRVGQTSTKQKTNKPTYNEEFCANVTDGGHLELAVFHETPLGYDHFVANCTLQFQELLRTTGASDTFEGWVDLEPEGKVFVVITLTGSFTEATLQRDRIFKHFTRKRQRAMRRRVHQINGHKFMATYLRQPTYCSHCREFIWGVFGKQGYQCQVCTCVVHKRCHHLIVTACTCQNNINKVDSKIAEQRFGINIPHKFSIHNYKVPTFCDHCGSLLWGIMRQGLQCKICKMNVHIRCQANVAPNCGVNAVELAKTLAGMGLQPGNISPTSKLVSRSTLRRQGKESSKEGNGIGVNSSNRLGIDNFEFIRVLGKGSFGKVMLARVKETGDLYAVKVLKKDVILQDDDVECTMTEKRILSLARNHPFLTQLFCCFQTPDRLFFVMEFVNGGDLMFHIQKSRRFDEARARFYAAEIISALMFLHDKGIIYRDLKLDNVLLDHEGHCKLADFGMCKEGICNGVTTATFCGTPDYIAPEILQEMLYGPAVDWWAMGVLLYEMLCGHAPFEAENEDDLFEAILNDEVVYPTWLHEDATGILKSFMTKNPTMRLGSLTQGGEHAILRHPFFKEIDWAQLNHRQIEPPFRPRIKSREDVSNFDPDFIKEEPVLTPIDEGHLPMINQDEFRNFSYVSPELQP
Chain of CaMKIIγ(h) (Q13555 whole entry): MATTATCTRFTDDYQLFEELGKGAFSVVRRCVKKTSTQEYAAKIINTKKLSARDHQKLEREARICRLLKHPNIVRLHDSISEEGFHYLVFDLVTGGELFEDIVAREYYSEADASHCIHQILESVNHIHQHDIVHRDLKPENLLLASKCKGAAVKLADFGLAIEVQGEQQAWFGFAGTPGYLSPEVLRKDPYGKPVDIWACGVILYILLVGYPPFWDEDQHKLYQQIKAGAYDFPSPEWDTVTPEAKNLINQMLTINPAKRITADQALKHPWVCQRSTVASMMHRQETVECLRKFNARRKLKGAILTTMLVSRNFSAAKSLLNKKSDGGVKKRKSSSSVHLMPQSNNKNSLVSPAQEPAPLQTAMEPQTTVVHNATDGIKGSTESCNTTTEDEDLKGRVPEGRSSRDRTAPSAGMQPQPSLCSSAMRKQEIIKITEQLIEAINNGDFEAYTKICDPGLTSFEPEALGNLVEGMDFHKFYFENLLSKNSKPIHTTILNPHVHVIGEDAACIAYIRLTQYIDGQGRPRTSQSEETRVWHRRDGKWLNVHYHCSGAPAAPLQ
Chain of PKCβII(h) (P05771 1-673 isoform P05771-2): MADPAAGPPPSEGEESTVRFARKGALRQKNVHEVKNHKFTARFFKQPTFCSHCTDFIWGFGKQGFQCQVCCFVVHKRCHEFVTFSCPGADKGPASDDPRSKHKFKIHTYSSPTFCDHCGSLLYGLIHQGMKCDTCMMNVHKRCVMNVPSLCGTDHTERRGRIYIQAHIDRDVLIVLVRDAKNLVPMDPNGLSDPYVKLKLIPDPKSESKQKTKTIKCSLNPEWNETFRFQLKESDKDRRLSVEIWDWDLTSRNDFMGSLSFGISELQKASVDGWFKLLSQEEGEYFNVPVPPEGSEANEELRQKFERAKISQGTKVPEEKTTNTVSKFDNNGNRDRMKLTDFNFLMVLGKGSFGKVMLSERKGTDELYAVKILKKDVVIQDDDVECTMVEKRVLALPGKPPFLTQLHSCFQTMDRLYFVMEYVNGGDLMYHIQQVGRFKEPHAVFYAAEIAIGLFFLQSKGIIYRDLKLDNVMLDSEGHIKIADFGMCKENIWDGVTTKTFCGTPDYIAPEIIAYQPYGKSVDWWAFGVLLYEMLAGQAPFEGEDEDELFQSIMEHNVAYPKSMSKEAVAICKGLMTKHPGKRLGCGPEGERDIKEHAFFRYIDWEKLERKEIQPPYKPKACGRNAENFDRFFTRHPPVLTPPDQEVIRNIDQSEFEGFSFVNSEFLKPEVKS

For HRRIKAWLKKIKALARQLGVAA [MMI-0500], the “% activity” value in the assay with Src(1-530)(h) was 21%; with IRAK1(h), 5%; with NEK11(h), 2%; with SRPK1(h) it was 80%; with PKCε(h), 23%; with IRAK4(h), 3%. Also, the “% activity” value came out at 36% with Ret(V804M)(h); 37% with Pim-3(h); 3% with PKCβII(h); 45% with PKCη(h); 3% with CaMKIIγ(h).
Regarding YARAAARQARAKALNRQLGVA [MMI-0200], the “% activity” value came out at 75% with Src(1-530)(h); 101% with IRAK1(h); 95% in the assay with NEK11(h); 93% in the assay with SRPK1(h); 98% with PKCε(h); 110% with IRAK4(h). Besides, the “% activity” value in the assay with Pim-3(h) turned out to be 94%; with PKCβII(h), 100%; with PKCη(h) it was 101%; with CaMKIIγ(h), 94%.
For the sequence KAFAKLAARLYRKALARQLGVAA [MMI-0400], the “% activity” value in the assay with Src(1-530)(h) was determined as 19%; in the assay with IRAK1(h) it was 93%; with NEK11(h) it was 33%; with SRPK1(h) it was 96%; with PKCε(h), 59%; in the assay with IRAK4(h) it was 59%. Moreover, the “% activity” value in the assay with Ret(V804M)(h) worked out at 87%; with Pim-3(h) it was 80%; in the assay with PKCβII(h), 75%; with PKCη(h), 98%; in the assay with CaMKIIγ(h) it was 3%.
For FAKLAARLYRKALARQLGVAA [MMI-0300], the “% activity” value worked out at 23% with Src(1-530)(h); 95% in the assay with IRAK1(h); 53% with NEK11(h); 90% with SRPK1(h); 79% in the assay with PKCε(h); 59% in the assay with IRAK4(h). Also, the “% activity” value in the assay with Ret(V804M)(h) is given as 95%; in the assay with Pim-3(h) it was 80%; with PKCβII(h), 82%; with CaMKIIγ(h), 5%.
